{
  "source": "the supplement of paper PMC10567573",
  "parents": {"B1": {"name": "TRIM43 (parent)", "chain": "NNSWIRKNSTMVNSEDIFLLLCLK"}},
  "data": [
    {"variants_of": "B1", "experiment": "protein stability index of a GFP-peptide fusion (GPS, HEK-293T) (PSI 1-6); higher = more stable", "details": "c terminus: a fixed tail appended", "values": [
      {"variant": "NNSWIRKNSTMVNSEDIFLILCLK", "protein stability index": 2.64},
      {"variant": "NNSWIRKNSTMVNSEDIFLELCLK", "protein stability index": 1.75},
      {"variant": "NNSWIRKNSTMVNSEDIFLNLCLK", "protein stability index": 3},
      {"variant": "NNSWIRKNSTMVNSEDIFLQLCLK", "protein stability index": 3.05},
      {"variant": "NNSWIRKNSTMVNSEDIFLYLCLK", "protein stability index": 2.75},
      {"variant": "NNSWIRKNSTMVNSEDIFLSLCLK", "protein stability index": 2.28},
      {"variant": "NNSWIRKNSTMVNSEDIFLCLCLK", "protein stability index": 2.25},
      {"variant": "NNSWIRKNSTMVNSEDIFLFLCLK", "protein stability index": 2.92},
      {"variant": "NNSWIRKNSTMVNSEDIFLTLCLK", "protein stability index": 2.72},
      {"variant": "NNSWIRKNSTMVNSEDIFLGLCLK", "protein stability index": 1.48},
      {"variant": "NNSWIRKNSTMVNSEDIFLRLCLK", "protein stability index": 1.72},
      {"variant": "NNSWIRKNSTMVNSEDIFLHLCLK", "protein stability index": 2.5},
      {"variant": "NNSWIRKNSTMVNSEDIFLWLCLK", "protein stability index": 3.12},
      {"variant": "NNSWIRKNSTMVNSEDIFLDLCLK", "protein stability index": 2.27},
      {"variant": "NNSWIRKNSTMVNSEDIFLKLCLK", "protein stability index": 2.36},
      {"variant": "NNSWIRKNSTMVNSEDIFLALCLK", "protein stability index": 2.14},
      {"variant": "NNSWIRKNSTMVNSEDIFLMLCLK", "protein stability index": 3.31},
      {"variant": "NNSWIRKNSTMVNSEDIFLVLCLK", "protein stability index": 2.57},
      {"variant": "NNSWIRKNSTMVNSEDIFLPLCLK", "protein stability index": 2.46},
      {"variant": "NNSWIRKNSTMVNSEDIFILLCLK", "protein stability index": 2.63},
      {"variant": "NNSWIRKNSTMVNSEDIFPLLCLK", "protein stability index": 1.95},
      {"variant": "NNSWIRKNSTMVNSEDIFFLLCLK", "protein stability index": 2.07},
      {"variant": "NNSWIRKNSTMVNSEDIFGLLCLK", "protein stability index": 1.8},
      {"variant": "NNSWIRKNSTMVNSEDIFHLLCLK", "protein stability index": 1.7},
      {"variant": "NNSWIRKNSTMVNSEDIFELLCLK", "protein stability index": 1.79},
      {"variant": "NNSWIRKNSTMVNSEDIFWLLCLK", "protein stability index": 2.33},
      {"variant": "NNSWIRKNSTMVNSEDIFQLLCLK", "protein stability index": 2.21},
      {"variant": "NNSWIRKNSTMVNSEDIFVLLCLK", "protein stability index": 3.1},
      {"variant": "NNSWIRKNSTMVNSEDIFNLLCLK", "protein stability index": 1.83},
      {"variant": "NNSWIRKNSTMVNSEDIFMLLCLK", "protein stability index": 2.08},
      {"variant": "NNSWIRKNSTMVNSEDIFYLLCLK", "protein stability index": 3.02},
      {"variant": "NNSWIRKNSTMVNSEDIFALLCLK", "protein stability index": 2.25},
      {"variant": "NNSWIRKNSTMVNSEDIFSLLCLK", "protein stability index": 1.63},
      {"variant": "NNSWIRKNSTMVNSEDIFCLLCLK", "protein stability index": 2.32},
      {"variant": "NNSWIRKNSTMVNSEDIFDLLCLK", "protein stability index": 2.01},
      {"variant": "NNSWIRKNSTMVNSEDIFTLLCLK", "protein stability index": 1.69},
      {"variant": "NNSWIRKNSTMVNSEDIFKLLCLK", "protein stability index": 1.54},
      {"variant": "NNSWIRKNSTMVNSEDIFRLLCLK", "protein stability index": 1.7},
      {"variant": "NNSWIRKNSTMVNSEDISLLLCLK", "protein stability index": 1.64},
      {"variant": "NNSWIRKNSTMVNSEDIILLLCLK", "protein stability index": 3.7},
      {"variant": "NNSWIRKNSTMVNSEDIVLLLCLK", "protein stability index": 2.92},
      {"variant": "NNSWIRKNSTMVNSEDICLLLCLK", "protein stability index": 2.71},
      {"variant": "NNSWIRKNSTMVNSEDIGLLLCLK", "protein stability index": 1.51},
      {"variant": "NNSWIRKNSTMVNSEDIQLLLCLK", "protein stability index": 2.5},
      {"variant": "NNSWIRKNSTMVNSEDIDLLLCLK", "protein stability index": 2.42},
      {"variant": "NNSWIRKNSTMVNSEDIKLLLCLK", "protein stability index": 2.23},
      {"variant": "NNSWIRKNSTMVNSEDIYLLLCLK", "protein stability index": 4.65},
      {"variant": "NNSWIRKNSTMVNSEDITLLLCLK", "protein stability index": 1.83},
      {"variant": "NNSWIRKNSTMVNSEDINLLLCLK", "protein stability index": 1.54},
      {"variant": "NNSWIRKNSTMVNSEDILLLLCLK", "protein stability index": 2.54},
      {"variant": "NNSWIRKNSTMVNSEDIELLLCLK", "protein stability index": 1.47},
      {"variant": "NNSWIRKNSTMVNSEDIWLLLCLK", "protein stability index": 2.46},
      {"variant": "NNSWIRKNSTMVNSEDIRLLLCLK", "protein stability index": 2.63},
      {"variant": "NNSWIRKNSTMVNSEDIHLLLCLK", "protein stability index": 2.42},
      {"variant": "NNSWIRKNSTMVNSEDIPLLLCLK", "protein stability index": 1.85},
      {"variant": "NNSWIRKNSTMVNSEDIMLLLCLK", "protein stability index": 4.64},
      {"variant": "NNSWIRKNSTMVNSEDIALLLCLK", "protein stability index": 1.7},
      {"variant": "NNSWIRKNSTMVNSEDGFLLLCLK", "protein stability index": 2.04},
      {"variant": "NNSWIRKNSTMVNSEDSFLLLCLK", "protein stability index": 2.6},
      {"variant": "NNSWIRKNSTMVNSEDNFLLLCLK", "protein stability index": 1.85},
      {"variant": "NNSWIRKNSTMVNSEDFFLLLCLK", "protein stability index": 2.21},
      {"variant": "NNSWIRKNSTMVNSEDAFLLLCLK", "protein stability index": 2.04},
      {"variant": "NNSWIRKNSTMVNSEDTFLLLCLK", "protein stability index": 2.42},
      {"variant": "NNSWIRKNSTMVNSEDHFLLLCLK", "protein stability index": 2.5},
      {"variant": "NNSWIRKNSTMVNSEDWFLLLCLK", "protein stability index": 2.16},
      {"variant": "NNSWIRKNSTMVNSEDQFLLLCLK", "protein stability index": 3.35},
      {"variant": "NNSWIRKNSTMVNSEDKFLLLCLK", "protein stability index": 2.62},
      {"variant": "NNSWIRKNSTMVNSEDCFLLLCLK", "protein stability index": 3.18},
      {"variant": "NNSWIRKNSTMVNSEDDFLLLCLK", "protein stability index": 1.93},
      {"variant": "NNSWIRKNSTMVNSEDYFLLLCLK", "protein stability index": 2.83},
      {"variant": "NNSWIRKNSTMVNSEDEFLLLCLK", "protein stability index": 3.62},
      {"variant": "NNSWIRKNSTMVNSEDVFLLLCLK", "protein stability index": 2.24},
      {"variant": "NNSWIRKNSTMVNSEDRFLLLCLK", "protein stability index": 2.7},
      {"variant": "NNSWIRKNSTMVNSEDPFLLLCLK", "protein stability index": 1.93},
      {"variant": "NNSWIRKNSTMVNSEDLFLLLCLK", "protein stability index": 3.15},
      {"variant": "NNSWIRKNSTMVNSEDMFLLLCLK", "protein stability index": 2.26},
      {"variant": "NNSWIRKNSTMTNSEDIFLLLCLK", "protein stability index": 4.1},
      {"variant": "NNSWIRKNSTMDNSEDIFLLLCLK", "protein stability index": 1.97},
      {"variant": "NNSWIRKNSTMLNSEDIFLLLCLK", "protein stability index": 3.58},
      {"variant": "NNSWIRKNSTMHNSEDIFLLLCLK", "protein stability index": 1.81},
      {"variant": "NNSWIRKNSTMPNSEDIFLLLCLK", "protein stability index": 2.79},
      {"variant": "NNSWIRKNSTMWNSEDIFLLLCLK", "protein stability index": 2.41},
      {"variant": "NNSWIRKNSTMNNSEDIFLLLCLK", "protein stability index": 3.36},
      {"variant": "NNSWIRKNSTMINSEDIFLLLCLK", "protein stability index": 2.53},
      {"variant": "NNSWIRKNSTMENSEDIFLLLCLK", "protein stability index": 2.92},
      {"variant": "NNSWIRKNSTMFNSEDIFLLLCLK", "protein stability index": 2.89},
      {"variant": "NNSWIRKNSTMRNSEDIFLLLCLK", "protein stability index": 4.39},
      {"variant": "NNSWIRKNSTMSNSEDIFLLLCLK", "protein stability index": 4.3},
      {"variant": "NNSWIRKNSTMCNSEDIFLLLCLK", "protein stability index": 1.62},
      {"variant": "NNSWIRKNSTMANSEDIFLLLCLK", "protein stability index": 2.57},
      {"variant": "NNSWIRKNSTMKNSEDIFLLLCLK", "protein stability index": 2.75},
      {"variant": "NNSWIRKNSTMGNSEDIFLLLCLK", "protein stability index": 2.21},
      {"variant": "NNSWIRKNSTMYNSEDIFLLLCLK", "protein stability index": 3.38},
      {"variant": "NNSWIRKNSTMMNSEDIFLLLCLK", "protein stability index": 3.38}
    ]}
  ]
}
